Results from US20140087995A1 (published 2014).
Numbered stars: 1 amine (or outer) side, 2 acyl side, 3 side chain; on linkers, the order of the positions; unused ones are H or OH. Bridge positions count the residues as written; N and C are the ends. Side chains are listed from the residue outwards. Ends that are not written are not given here. * marks the point of attachment. C20 diacid = O=C(O)CCCCCCCCCCCCCCCCCCC(=O)*; γGlu = O=C(O)[C@H](CCC(=O)[*:2])N[*:1]

T1: human amylin receptor (amylin 3(a) receptor: human calcitonin receptor plus RAMP-3) (human, UniProt P30988 25-474; O60896 24-148, limits assumed)
T1 construct: whole, on cells; the functional assay (Assay IIa) used the whole cells; also called hAmylin-R; hAmylinR
T1 sequence (looked up) 1: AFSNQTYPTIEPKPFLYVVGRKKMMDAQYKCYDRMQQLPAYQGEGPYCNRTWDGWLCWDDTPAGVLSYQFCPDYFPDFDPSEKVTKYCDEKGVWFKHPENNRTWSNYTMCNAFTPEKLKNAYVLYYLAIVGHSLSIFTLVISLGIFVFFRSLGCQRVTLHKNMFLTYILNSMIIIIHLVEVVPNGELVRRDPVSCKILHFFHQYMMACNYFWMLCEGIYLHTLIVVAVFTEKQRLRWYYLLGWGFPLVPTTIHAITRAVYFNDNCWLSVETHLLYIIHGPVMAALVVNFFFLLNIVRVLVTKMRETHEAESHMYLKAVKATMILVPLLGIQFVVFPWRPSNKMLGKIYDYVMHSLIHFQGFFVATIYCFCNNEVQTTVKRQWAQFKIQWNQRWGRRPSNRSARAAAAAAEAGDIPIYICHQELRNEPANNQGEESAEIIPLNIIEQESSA
T1 sequence (looked up) 2: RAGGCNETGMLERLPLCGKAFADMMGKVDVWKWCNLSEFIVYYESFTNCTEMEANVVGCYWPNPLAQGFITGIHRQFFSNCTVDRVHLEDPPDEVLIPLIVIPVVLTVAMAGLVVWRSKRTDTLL

T2: human calcitonin receptor (human, UniProt P30988 25-474)
T2 sequence (looked up): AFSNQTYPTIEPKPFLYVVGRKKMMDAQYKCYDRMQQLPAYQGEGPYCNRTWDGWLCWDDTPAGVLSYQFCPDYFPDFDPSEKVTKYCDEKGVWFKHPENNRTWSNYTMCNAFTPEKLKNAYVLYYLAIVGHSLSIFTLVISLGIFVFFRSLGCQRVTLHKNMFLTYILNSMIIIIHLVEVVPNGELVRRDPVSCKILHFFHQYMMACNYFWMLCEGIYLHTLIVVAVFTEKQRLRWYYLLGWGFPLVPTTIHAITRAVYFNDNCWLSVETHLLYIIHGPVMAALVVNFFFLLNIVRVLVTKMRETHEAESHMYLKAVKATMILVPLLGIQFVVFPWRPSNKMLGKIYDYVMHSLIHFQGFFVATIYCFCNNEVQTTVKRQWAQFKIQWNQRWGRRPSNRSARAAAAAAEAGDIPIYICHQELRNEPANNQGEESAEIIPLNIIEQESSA

B1: N^α1 N^α1-[(4S)-4-carboxy-4-[[(4S)-4-carboxy-4-(19-carboxynonadecanoylamino)butanoyl]amino]butanoyl]-[Glu14,Arg17,Pro21,Pro27]-h-amylin (peptide)
peptide: {C20 diacid-γGlu-γGlu}-KCNTATCATQRLAEFLRHSSPNFGAIPSSTNVGSNTY-NH2
modifications: disulfide 2-7
SMILES: CC[C@H](C)[C@H](NC(=O)[C@H](C)NC(=O)CNC(=O)[C@H](Cc1ccccc1)NC(=O)[C@H](CC(N)=O)NC(=O)[C@@H]1CCCN1C(=O)[C@H](CO)NC(=O)[C@H](CO)NC(=O)[C@H](Cc1c[nH]cn1)NC(=O)[C@H](CCCNC(=N)N)NC(=O)[C@H](CC(C)C)NC(=O)[C@H](Cc1ccccc1)NC(=O)[C@H](CCC(=O)O)NC(=O)[C@H](C)NC(=O)[C@H](CC(C)C)NC(=O)[C@H](CCCNC(=N)N)NC(=O)[C@H](CCC(N)=O)NC(=O)[C@@H](NC(=O)[C@H](C)NC(=O)[C@@H]1CSSC[C@H](NC(=O)[C@H](CCCCN)NC(=O)CC[C@H](NC(=O)CC[C@H](NC(=O)CCCCCCCCCCCCCCCCCCC(=O)O)C(=O)O)C(=O)O)C(=O)N[C@@H](CC(N)=O)C(=O)N[C@@H]([C@@H](C)O)C(=O)N[C@@H](C)C(=O)N[C@@H]([C@@H](C)O)C(=O)N1)[C@@H](C)O)C(=O)N1CCC[C@H]1C(=O)N[C@@H](CO)C(=O)N[C@@H](CO)C(=O)N[C@H](C(=O)N[C@@H](CC(N)=O)C(=O)N[C@H](C(=O)NCC(=O)N[C@@H](CO)C(=O)N[C@@H](CC(N)=O)C(=O)N[C@H](C(=O)N[C@@H](Cc1ccc(O)cc1)C(N)=O)[C@@H](C)O)C(C)C)[C@@H](C)O
notes: also called compound 15
B2: N^α1-[(4S)-4-carboxy-4-[[(4S)-4-carboxy-4-(19-carboxynonadecanoylamino)butanoyl]amino]butanoyl]-[Glu14,Arg17,Pro21,Pro27,Pro37]-h-amylin (peptide)
peptide: {C20 diacid-γGlu-γGlu}-KCNTATCATQRLAEFLRHSSPNFGAIPSSTNVGSNTP-NH2
modifications: disulfide 2-7
SMILES: CC[C@H](C)[C@H](NC(=O)[C@H](C)NC(=O)CNC(=O)[C@H](Cc1ccccc1)NC(=O)[C@H](CC(N)=O)NC(=O)[C@@H]1CCCN1C(=O)[C@H](CO)NC(=O)[C@H](CO)NC(=O)[C@H](Cc1c[nH]cn1)NC(=O)[C@H](CCCNC(=N)N)NC(=O)[C@H](CC(C)C)NC(=O)[C@H](Cc1ccccc1)NC(=O)[C@H](CCC(=O)O)NC(=O)[C@H](C)NC(=O)[C@H](CC(C)C)NC(=O)[C@H](CCCNC(=N)N)NC(=O)[C@H](CCC(N)=O)NC(=O)[C@@H](NC(=O)[C@H](C)NC(=O)[C@@H]1CSSC[C@H](NC(=O)[C@H](CCCCN)NC(=O)CC[C@H](NC(=O)CC[C@H](NC(=O)CCCCCCCCCCCCCCCCCCC(=O)O)C(=O)O)C(=O)O)C(=O)N[C@@H](CC(N)=O)C(=O)N[C@@H]([C@@H](C)O)C(=O)N[C@@H](C)C(=O)N[C@@H]([C@@H](C)O)C(=O)N1)[C@@H](C)O)C(=O)N1CCC[C@H]1C(=O)N[C@@H](CO)C(=O)N[C@@H](CO)C(=O)N[C@H](C(=O)N[C@@H](CC(N)=O)C(=O)N[C@H](C(=O)NCC(=O)N[C@@H](CO)C(=O)N[C@@H](CC(N)=O)C(=O)N[C@H](C(=O)N1CCC[C@H]1C(N)=O)[C@@H](C)O)C(C)C)[C@@H](C)O
notes: also called compound 14
B3: N^ε1-[(4S)--4-carboxy-4-(19-carboxynonadecanoylamino)butanoyl]-[Glu14,Arg17,Pro21,Pro27,Pro37]-h-amylin (peptide)
peptide: K([γGlu-C20 diacid])CNTATCATQRLAEFLRHSSPNFGAIPSSTNVGSNTP-NH2
modifications: disulfide 2-7; N-terminus assumed
SMILES: CC[C@H](C)[C@H](NC(=O)[C@H](C)NC(=O)CNC(=O)[C@H](Cc1ccccc1)NC(=O)[C@H](CC(N)=O)NC(=O)[C@@H]1CCCN1C(=O)[C@H](CO)NC(=O)[C@H](CO)NC(=O)[C@H](Cc1c[nH]cn1)NC(=O)[C@H](CCCNC(=N)N)NC(=O)[C@H](CC(C)C)NC(=O)[C@H](Cc1ccccc1)NC(=O)[C@H](CCC(=O)O)NC(=O)[C@H](C)NC(=O)[C@H](CC(C)C)NC(=O)[C@H](CCCNC(=N)N)NC(=O)[C@H](CCC(N)=O)NC(=O)[C@@H](NC(=O)[C@H](C)NC(=O)[C@@H]1CSSC[C@H](NC(=O)[C@@H](N)CCCCNC(=O)CC[C@H](NC(=O)CCCCCCCCCCCCCCCCCCC(=O)O)C(=O)O)C(=O)N[C@@H](CC(N)=O)C(=O)N[C@@H]([C@@H](C)O)C(=O)N[C@@H](C)C(=O)N[C@@H]([C@@H](C)O)C(=O)N1)[C@@H](C)O)C(=O)N1CCC[C@H]1C(=O)N[C@@H](CO)C(=O)N[C@@H](CO)C(=O)N[C@H](C(=O)N[C@@H](CC(N)=O)C(=O)N[C@H](C(=O)NCC(=O)N[C@@H](CO)C(=O)N[C@@H](CC(N)=O)C(=O)N[C@H](C(=O)N1CCC[C@H]1C(N)=O)[C@@H](C)O)C(C)C)[C@@H](C)O
notes: also called compound 12
B4: N^ε1-[(4S)-4-carboxy-4-[[(4S)-4-carboxy-4-(19-carboxynonadecanoylamino)butanoyl]amino]butanoyl]-[Glu14,Arg17,Pro21,Pro27,Pro37]-h-amylin (peptide)
peptide: K([γGlu-γGlu-C20 diacid])CNTATCATQRLAEFLRHSSPNFGAIPSSTNVGSNTP-NH2
modifications: disulfide 2-7; N-terminus assumed
SMILES: CC[C@H](C)[C@H](NC(=O)[C@H](C)NC(=O)CNC(=O)[C@H](Cc1ccccc1)NC(=O)[C@H](CC(N)=O)NC(=O)[C@@H]1CCCN1C(=O)[C@H](CO)NC(=O)[C@H](CO)NC(=O)[C@H](Cc1c[nH]cn1)NC(=O)[C@H](CCCNC(=N)N)NC(=O)[C@H](CC(C)C)NC(=O)[C@H](Cc1ccccc1)NC(=O)[C@H](CCC(=O)O)NC(=O)[C@H](C)NC(=O)[C@H](CC(C)C)NC(=O)[C@H](CCCNC(=N)N)NC(=O)[C@H](CCC(N)=O)NC(=O)[C@@H](NC(=O)[C@H](C)NC(=O)[C@@H]1CSSC[C@H](NC(=O)[C@@H](N)CCCCNC(=O)CC[C@H](NC(=O)CC[C@H](NC(=O)CCCCCCCCCCCCCCCCCCC(=O)O)C(=O)O)C(=O)O)C(=O)N[C@@H](CC(N)=O)C(=O)N[C@@H]([C@@H](C)O)C(=O)N[C@@H](C)C(=O)N[C@@H]([C@@H](C)O)C(=O)N1)[C@@H](C)O)C(=O)N1CCC[C@H]1C(=O)N[C@@H](CO)C(=O)N[C@@H](CO)C(=O)N[C@H](C(=O)N[C@@H](CC(N)=O)C(=O)N[C@H](C(=O)NCC(=O)N[C@@H](CO)C(=O)N[C@@H](CC(N)=O)C(=O)N[C@H](C(=O)N1CCC[C@H]1C(N)=O)[C@@H](C)O)C(C)C)[C@@H](C)O
notes: also called compound 13
B5: N^α1N^α1-[(4S)-4-carboxy-4-(19-carboxynonadecanoylamino)butanoyl]-[Glu14,Arg17,Pro21,Pro27,Glu35]-h-amylin (peptide)
peptide: {C20 diacid-γGlu}-KCNTATCATQRLAEFLRHSSPNFGAIPSSTNVGSETY-NH2
modifications: disulfide 2-7
SMILES: CC[C@H](C)[C@H](NC(=O)[C@H](C)NC(=O)CNC(=O)[C@H](Cc1ccccc1)NC(=O)[C@H](CC(N)=O)NC(=O)[C@@H]1CCCN1C(=O)[C@H](CO)NC(=O)[C@H](CO)NC(=O)[C@H](Cc1c[nH]cn1)NC(=O)[C@H](CCCNC(=N)N)NC(=O)[C@H](CC(C)C)NC(=O)[C@H](Cc1ccccc1)NC(=O)[C@H](CCC(=O)O)NC(=O)[C@H](C)NC(=O)[C@H](CC(C)C)NC(=O)[C@H](CCCNC(=N)N)NC(=O)[C@H](CCC(N)=O)NC(=O)[C@@H](NC(=O)[C@H](C)NC(=O)[C@@H]1CSSC[C@H](NC(=O)[C@H](CCCCN)NC(=O)CC[C@H](NC(=O)CCCCCCCCCCCCCCCCCCC(=O)O)C(=O)O)C(=O)N[C@@H](CC(N)=O)C(=O)N[C@@H]([C@@H](C)O)C(=O)N[C@@H](C)C(=O)N[C@@H]([C@@H](C)O)C(=O)N1)[C@@H](C)O)C(=O)N1CCC[C@H]1C(=O)N[C@@H](CO)C(=O)N[C@@H](CO)C(=O)N[C@H](C(=O)N[C@@H](CC(N)=O)C(=O)N[C@H](C(=O)NCC(=O)N[C@@H](CO)C(=O)N[C@@H](CCC(=O)O)C(=O)N[C@H](C(=O)N[C@@H](Cc1ccc(O)cc1)C(N)=O)[C@@H](C)O)C(C)C)[C@@H](C)O
notes: also called compound 22

Columns and labels:
[1] = biological target: T1, human amylin receptor (amylin 3(a) …); assay: SPA competition binding, membranes of Amylin 3(a)/CRE-luc BHK cells, displacement of 125I-rat amylin (Assay V)
Method: The binding assay was performed using scintillation proximity assay (SPA) beads (RPNQ0001) from PerkinElmer and cell membranes from the Amylin 3(a)/CRE-luc cells (as described in Assay (II)) were used. Membranes were prepared in the following way; the cells were rinsed with PBS and incubated with Versene for approximately 5 min before harvesting. The cells were flushed with PBS and the cell-suspension was centrifuged for 5 min at 1000 rpm. Cells were homogenized (ultrathurrax) in a buffer containing 20 mM Na-HEPES and 10 mM EDTA (pH 7.4) and centrifuged at 20.000 rpm for 15 min. The resulting pellet was resuspended, homogenized and centrifuged (20.000 rpm, 15 min) in a buffer containing 20 mM Na-HEPES and 0.1 mM EDTA (pH 7.4, buffer 2). The resulting pellet was resuspended in buffer 2 and protein concentration was measured (BCA protein Assay, Pierce). The homogenate was kept cold during the whole procedure. The membranes were kept at −80° C. until use. The assay was performed in a 384 well Optiplate (PerkinElmer) in a total volume of 40 ul. Membranes were mixed with SPA beads. Final concentration of membranes 35 ng/μL final and SPA beads was 0.05 mg/well. Test-compounds were dissolved in DMSO and further diluted in assay buffer (50 mM Hepes, pH 7.4, 1 mM CaCl2, 5 mM MgCl₂, 0.1% OA and 0.02% Tween20). […] The final mixture was incubated with shaking at 400 rpm for 120 min at 25° C. prior to centrifugation (1500 rpm, 10 min). Samples were analyzed on TopCounter™ (Packard). The IC₅₀ was calculated using (one site binding competition analysis) GraphPad Prism5 as a measure of receptor affinity.

[2] = biological target: T2, human calcitonin receptor; assay: cell-based or functional assay
[3] = biological target: T1, human amylin receptor (amylin 3(a) …); assay: cell-based or functional assay

Row | Binder | IC50 [1] [nM] | Ratio hCT/hAmylin funct. (hCTR EC50 against hAmylin-R EC50) [2] | hCTR funct. EC50 [2] [nM] | hAmylin-R funct. EC50 [3] [nM]
1 | B1 | 0.597 | 8.9 | 3.43 | 0.386
2 | B2 | 0.196 | 1.6 | 0.238 | 0.146
3 | B3 | 0.142 | 1.8 | 0.185 | 0.101
4 | B4 | 0.264 | 2.2 | 0.47 | 0.213
5 | B5 | 0.794 | 3.8 | 1.03 | 0.27
